Results on 167 variants are retold here after the RNAGym collection of RNA variant scans (doi:10.7554/elife.80360).

To fix the notation:
B1: HDV Ribozyme (parent)
chain: GGCCGGCAUGGUCCCAGCCUCCUCGCUGGCGCCGGCUGGGCAACAUUCCGAGGGGACCGUCCCCUCGGUAAUGGCGAAUGGGACCCA

This data set covers variants of B1. The experiment in a line: self-cleavage, relative activity (ratio to wild type); higher = more cleavage; co-transcriptional.
On to G17U U60C, for which the self-cleavage came out at 0.601.
Next, A56C C84G: 0.755.
Regarding G52A U60C, the self-cleavage turned out to be 1.08.
As for C36G C86U, the self-cleavage was determined as 0.0437.
On to G34C G53C, for which the self-cleavage turned out to be 0.0898.
On to U46G G76U, for which the self-cleavage came to 0.73.
Turning to G54A A87U, the self-cleavage is 0.922.
As for A43U U47G, the self-cleavage was determined as 0.361.
Consider G28U A87U, for which the self-cleavage was 0.116.
G28U G38U: the self-cleavage was found to be 0.14.
Next, U9C G25U: 0.104; A42C C85G: 0.469; C30G C48G: 0.119.
With C7A G11C, the self-cleavage is 0.
On to C22U A83C, for which the self-cleavage came to 0.298.
On to C24G G67U, for which the self-cleavage was found to be 0.135.
As for U12G A56C, the self-cleavage was 0.831.
As for C13G C36U, the self-cleavage was 0.0369.
As to C18A G40C, the self-cleavage is 0.162.
Consider G5A U23G, for which the self-cleavage turned out to be 0.0923.
On to U46A G74U, for which the self-cleavage was determined as 0.305.
As to G38U C66A, the self-cleavage amounted to 0.185.
Turning to C21A C63G, the self-cleavage came out at 0.0978.
With U60G, the self-cleavage is 0.978.
Regarding U37A G76A, the self-cleavage turned out to be 0.172.
Turning to A16C C21G, the self-cleavage is 0.119.
Regarding G6C A56C, the self-cleavage came out at 0.401.
As to C7A A83G, the self-cleavage stood at 0.141.
Take C7A A51U: the self-cleavage is 0.538.
Then G2C G53C, with 0.125; and C24A U65C, with 0.658; and G6U U37G, with 0.0554.
For G10C G11C, the self-cleavage is 0.462.
As for A45U C84U, the self-cleavage turned out to be 0.623.
On to G11C G67C, for which the self-cleavage is 0.115.
Then C36G G39A, with 0.0326; and G10C C86A, with 1.04.
Then G25U U72G, with 0.181; and G40C A51C, with 0.111.
Regarding A42G G59A, the self-cleavage turned out to be 0.831.
As for G59U G67U, the self-cleavage came out at 1.17.
Regarding C26A A45C, the self-cleavage turned out to be 0.554.
With U23G C48G, the self-cleavage worked out at 0.361.
Turning to C18U C33A, the self-cleavage is 0.0354.
For A43G G81C, the self-cleavage was 0.
Then G17C C19U, with 0.128.
In the case of G31A G52A, the self-cleavage is 0.46.
G40A A43C: the self-cleavage was found to be 0.601.
Turning to C32U G39C, the self-cleavage worked out at 0.122.
Turning to U20G C22G, the self-cleavage was found to be 0.266.
Then C15U C85U, with 0.906; and C32G G34C, with 0.0475.
Then G5A C49U, with 0.18.
Take C3G A8U: the self-cleavage came to 0.376.
Consider G10A G67C, for which the self-cleavage worked out at 0.599.
G2U G54U: the self-cleavage was 0.0589.
In the case of U9G G74C, the self-cleavage stood at 0.437.
Turning to G10A C57A, the self-cleavage worked out at 0.727.
Then G40C U69A, with 0.119; and C3A C66U, with 0.549.
Turning to C19G G38U, the self-cleavage amounted to 0.0852.
G35A U79G: the self-cleavage stood at 0.397.
Consider C48A G80A, for which the self-cleavage was found to be 0.293.
For G29C G74A, the self-cleavage turned out to be 0.0733.
G67A A87C: the self-cleavage stood at 0.956.
On to U37G G59A, for which the self-cleavage was determined as 0.
On to G17U A70G, for which the self-cleavage came to 0.674.
On to U23A A71C, for which the self-cleavage was 0.712.
Turning to G34C G76U, the self-cleavage is 0.358.
Consider A43G G80C, for which the self-cleavage amounted to 0.208.
Next, A45G C57A: 0.979; U20G C66G: 0.511; G2A C3G: 0.123.
For the variant G55A G81A, the self-cleavage came to 0.535.
In the case of G2A C15G, the self-cleavage turned out to be 0.0277.
For the variant C18A C26A, the self-cleavage came out at 0.244.
Then G17A C63A, with 0.611; and G34C G40A, with 0.354; and C30A G31A, with 0.0733.
Consider G25C G68U, for which the self-cleavage came out at 0.161.
Then C26A C64G, with 0.95; and G11C C21G, with 0; and A77C C85G, with 0.492.
Next, C14G C33A: 0.151.
Then C13A G50C, with 0.283; and G59U G68U, with 1.
G25U G67C: the self-cleavage is 0.277.
Regarding U60A A83C, the self-cleavage came out at 0.554.
As to A43C A56C, the self-cleavage is 0.59.
On to A51C G53U, for which the self-cleavage was 0.69.
With C18A C86U, the self-cleavage is 0.0898.
Turning to G39U G53U, the self-cleavage came to 0.587.
As for G1C G11U, the self-cleavage was determined as 0.115.
With G53U G68U, the self-cleavage is 0.703.
In the case of G68U A83C, the self-cleavage turned out to be 0.538.
Turning to A8C C19A, the self-cleavage worked out at 0.0449.
Take G1C C13G: the self-cleavage stood at 0.0791.
C7G U9C: the self-cleavage came to 0.
Regarding G40C C49G, the self-cleavage was determined as 0.261.
Then C18A A77C, with 0.
As to G17C G35U, the self-cleavage stood at 0.0773.
In the case of C14A G29C, the self-cleavage is 0.0302.
G29C G76C: the self-cleavage is 0.0386.
A51G C86U: the self-cleavage is 1.13.
For the variant A16C A42C, the self-cleavage was 0.192.
Next, G5A U20G: 0.185; G11U A45U: 0.217; C30U G35C: 0.185.
U37G G38U: the self-cleavage was found to be 0.155.
Consider U9C C64A, for which the self-cleavage was determined as 0.831.
Turning to G74C G80A, the self-cleavage amounted to 0.227.
Turning to G50U A77U, the self-cleavage amounted to 0.62.
Then A51G U79C, with 0.354; and A16U G55U, with 1.09; and C41G A83G, with 0.759.
U9G U79A: the self-cleavage came out at 0.68.
On to C49U G80C, for which the self-cleavage was determined as 0.143.
Then U20A A83G, with 0.14.
For U20A C75G, the self-cleavage came out at 0.0791.
For C62A A83C, the self-cleavage stood at 0.315.
G35A C48G: the self-cleavage came out at 0.539.
Regarding U12G U79A, the self-cleavage came out at 0.939.
With G11C C66A, the self-cleavage is 0.285.
As for C33G C44U, the self-cleavage is 0.172.
As for A16G G35A, the self-cleavage is 0.696.
With C26A G82A, the self-cleavage was 0.721.
In the case of C3U C18G, the self-cleavage is 0.0779.
Regarding C33G G39A, the self-cleavage stood at 0.0997.
Take G31A C66A: the self-cleavage was 0.546.
As to U69C A70C, the self-cleavage was 1.23.
C26G C66A: the self-cleavage came out at 1.05.
U65C G73A: the self-cleavage amounted to 0.746.
Regarding U27G U79G, the self-cleavage is 0.427.
As to C7A A77G, the self-cleavage worked out at 0.107.
G5U C48A: the self-cleavage was found to be 0.712.
For the variant G34C A78U, the self-cleavage was 0.0475.
Next, G52A G82C: 0.362; G50C G59A: 0.992.
As to G40A G76U, the self-cleavage was 0.843.
On to G25C G28C, for which the self-cleavage stood at 0.
With G55U C86G, the self-cleavage was 1.03.
As for G28A G81A, the self-cleavage turned out to be 0.101.
Consider G2U U69A, for which the self-cleavage was 0.0222.
As to G25U A77C, the self-cleavage turned out to be 0.0504.
Consider C14U C22U, for which the self-cleavage was found to be 0.935.
Then G68A G74A, with 0.51; and C26G A87G, with 1.07.
In the case of C13G C24U, the self-cleavage worked out at 0.0504.
As to U9C G29U, the self-cleavage came to 0.115.
Consider U9C G29C, for which the self-cleavage amounted to 0.138.
Regarding G67A G80U, the self-cleavage was 0.203.
Next, C13U G28C: 0; C22G U47G: 0.0791.
With U27C C48A, the self-cleavage was determined as 1.02.
As to C13G G82C, the self-cleavage stood at 0.582.
Next, G39C C62A: 0.244.
On to G29U C32G, for which the self-cleavage is 0.0455.
Turning to C49G G59A, the self-cleavage was 1.11.
Regarding G54A G55C, the self-cleavage was 1.04.
Take C21U G29U: the self-cleavage stood at 0.0504.
For the variant C7G C36U, the self-cleavage amounted to 0.0504.
Consider A70U A77C, for which the self-cleavage stood at 0.0978.
On to A51G G52U, for which the self-cleavage is 1.02.
For C33G G54A, the self-cleavage was determined as 0.332.
With U37C G67C, the self-cleavage is 0.989.
Regarding C4U A16G, the self-cleavage worked out at 0.862.
Next, G55U G59C: 1.02.
